Measurements reported in patent US20130236458A1 (AbbVie / Abbott, published 2013).

B1: DVD2167 (bispecific antibody)
VH: EVQLVQSGAEVKKPGSSVKVSCKASGYTFTDYEIHWVRQAPGQGLEWMGVNDPESGGTFYNQKFDGRVTLTADESTSTAYMELSSLRSEDTAVYYCTRYSKWDSFDGMDYWGQGTTVTVSSASTKGPEVQLVQSGAEVKKPGASVKVSCKASGYTFTTYGVSWVRQAPGQGLEWMGEIYPGNYNTYYNEKFRGRVTMTTDTSTSTAYMELRSLRSDDTAVYYCARWRTSYFSDYGYFDYWGQGTTVTVSS
VL: DIQMTQSPSSLSASVGDRVTITCRASSGIISYIDWFQQKPGKAPKRLIYATFDLASGVPSRFSGSGSGTDYTLTISSLQPEDFATYYCRQVGSYPETFGQGTKLEIKRTVAAPDVVMTQSPLSLPVTLGQPASISCRSSQSLVHSHGNTYLHWYQQRPGQSPRLLIYTVSNRFSGVPDRFSGSGSGTDFTLKISRVEAEDVGVYYCSQSTHVPYTFGGGTKVEIKR
notes: DVD-Ig; also called DVD2167H; DVD2167L
B2: DVD2168 (bispecific antibody)
VH: EVQLVQSGAEVKKPGASVKVSCKASGYTFTTYGVSWVRQAPGQGLEWMGEIYPGNYNTYYNEKFRGRVTMTTDTSTSTAYMELRSLRSDDTAVYYCARWRTSYFSDYGYFDYWGQGTTVTVSSASTKGPEVQLVQSGAEVKKPGSSVKVSCKASGYTFTDYEIHWVRQAPGQGLEWMGVNDPESGGTFYNQKFDGRVTLTADESTSTAYMELSSLRSEDTAVYYCTRYSKWDSFDGMDYWGQGTTVTVSS
VL: DVVMTQSPLSLPVTLGQPASISCRSSQSLVHSHGNTYLHWYQQRPGQSPRLLIYTVSNRFSGVPDRFSGSGSGTDFTLKISRVEAEDVGVYYCSQSTHVPYTFGGGTKVEIKRTVAAPSVFIFPPDIQMTQSPSSLSASVGDRVTITCRASSGIISYIDWFQQKPGKAPKRLIYATFDLASGVPSRFSGSGSGTDYTLTISSLQPEDFATYYCRQVGSYPETFGQGTKLEIKR
notes: DVD-Ig; also called DVD2168H; DVD2168L
B3: DVD2171 (bispecific antibody)
VH: EVQLVQSGAEVKKPGSSVKVSCKASGYTFTDYEIHWVRQAPGQGLEWMGVNDPESGGTFYNQKFDGRVTLTADESTSTAYMELSSLRSEDTAVYYCTRYSKWDSFDGMDYWGQGTTVTVSSASTKGPSVFPLAPEVQLVQSGAEVKKPGASVKVSCKASGYTFTTYGVSWVRQAPGQGLEWMGEIYPGNYNTYYNEKFRGRVTMTTDTSTSTAYMELRSLRSDDTAVYYCARWRTSYFSDYGYFDYWGQGTTVTVSS
VL: B1 VL
notes: DVD-Ig; also called DVD2171H; DVD2171L
B4: DVD2172 (bispecific antibody)
VH: EVQLVQSGAEVKKPGASVKVSCKASGYTFTTYGVSWVRQAPGQGLEWMGEIYPGNYNTYYNEKFRGRVTMTTDTSTSTAYMELRSLRSDDTAVYYCARWRTSYFSDYGYFDYWGQGTTVTVSSASTKGPEVQLVQSGAEVKKPGSSVKVSCKASGGSFGGYGIGWVRQAPGQGLEWMGGITPFFGFADYAQKFQGRVTITADESTTTAYMELSGLTSDDTAVYYCARDPNEFWNGYYSTHDFDSWGQGTTVTVSS
VL: DVVMTQSPLSLPVTLGQPASISCRSSQSLVHSHGNTYLHWYQQRPGQSPRLLIYTVSNRFSGVPDRFSGSGSGTDFTLKISRVEAEDVGVYYCSQSTHVPYTFGGGTKVEIKRTVAAPEIVLTQSPDFQSVTPKEKVTITCRASQDIGSELHWYQQKPDQPPKLLIKYASHSTSGVPSRFSGSGSGTDFTLTINGLEAEDAGTYYCHQTDSLPYTFGPGTKVDIKR
notes: DVD-Ig; also called DVD2172H; DVD2172L
B5: DVD2173 (bispecific antibody)
VH: EVQLVQSGAEVKKPGSSVKVSCKASGGSFGGYGIGWVRQAPGQGLEWMGGITPFFGFADYAQKFQGRVTITADESTTTAYMELSGLTSDDTAVYYCARDPNEFWNGYYSTHDFDSWGQGTTVTVSSASTKGPEVQLVQSGAEVKKPGASVKVSCKASGYTFTTYGVSWVRQAPGQGLEWMGEIYPGNYNTYYNEKFRGRVTMTTDTSTSTAYMELRSLRSDDTAVYYCARWRTSYFSDYGYFDYWGQGTTVTVSS
VL: EIVLTQSPDFQSVTPKEKVTITCRASQDIGSELHWYQQKPDQPPKLLIKYASHSTSGVPSRFSGSGSGTDFTLTINGLEAEDAGTYYCHQTDSLPYTFGPGTKVDIKRTVAAPDVVMTQSPLSLPVTLGQPASISCRSSQSLVHSHGNTYLHWYQQRPGQSPRLLIYTVSNRFSGVPDRFSGSGSGTDFTLKISRVEAEDVGVYYCSQSTHVPYTFGGGTKVEIKR
notes: DVD-Ig; also called DVD2173H; DVD2173L
B6: DVD2174 (bispecific antibody)
VH: B4 VH
VL: DVVMTQSPLSLPVTLGQPASISCRSSQSLVHSHGNTYLHWYQQRPGQSPRLLIYTVSNRFSGVPDRFSGSGSGTDFTLKISRVEAEDVGVYYCSQSTHVPYTFGGGTKVEIKRTVAAPSVFIFPPEIVLTQSPDFQSVTPKEKVTITCRASQDIGSELHWYQQKPDQPPKLLIKYASHSTSGVPSRFSGSGSGTDFTLTINGLEAEDAGTYYCHQTDSLPYTFGPGTKVDIKR
notes: DVD-Ig; also called DVD2174H; DVD2174L
B7: DVD2175 (bispecific antibody)
VH: B5 VH
VL: EIVLTQSPDFQSVTPKEKVTITCRASQDIGSELHWYQQKPDQPPKLLIKYASHSTSGVPSRFSGSGSGTDFTLTINGLEAEDAGTYYCHQTDSLPYTFGPGTKVDIKRTVAAPSVFIFPPDVVMTQSPLSLPVTLGQPASISCRSSQSLVHSHGNTYLHWYQQRPGQSPRLLIYTVSNRFSGVPDRFSGSGSGTDFTLKISRVEAEDVGVYYCSQSTHVPYTFGGGTKVEIKR
notes: DVD-Ig; also called DVD2175H; DVD2175L

Columns and labels:
Recombinant Human IL-13 [1] = target: T1, Recombinant Human IL-13 (human, UniProt P35225 35-146, limits assumed); assay: SPR (Biacore)
T1 construct: bought reagent
Method in brief: (§1)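 Antibodies or DVD-Ig captured on anti-mouse IgG (Fcγ) CM5 surface; antigen injected at 10–200 nM in HBS-EP, pH 7.4, 25 °C, 25 µL/min. kon and koff from global 1:1 Langmuir fit; KD = koff/kon.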

Recombinant Human IL-17 [2] = target: T2, Recombinant Human IL-17 (human, UniProt Q16552 20-155, limits assumed); assay: SPR (Biacore)
T2 construct: bought reagent; also called IL-17A
T2 sequence (looked up): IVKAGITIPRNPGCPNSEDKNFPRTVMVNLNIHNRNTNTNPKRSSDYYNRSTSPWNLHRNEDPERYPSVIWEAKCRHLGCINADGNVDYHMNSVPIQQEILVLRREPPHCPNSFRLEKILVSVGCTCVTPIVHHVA
Method in brief: as §1

Recombinant Human IL-13 [3] = target: T1, Recombinant Human IL-13; assay: cell-based or functional assay
Recombinant Human IL-17 [4] = target: T2, Recombinant Human IL-17; assay: cell-based or functional assay

T1 sequence (P35225 35-146 limits assumed): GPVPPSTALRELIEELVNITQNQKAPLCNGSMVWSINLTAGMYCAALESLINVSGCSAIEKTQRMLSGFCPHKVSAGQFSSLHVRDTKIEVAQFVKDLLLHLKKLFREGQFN

| Binder | Kd (Recombinant Human IL-13 [1]) | koff (Recombinant Human IL-13 [1]) | kon (Recombinant Human IL-13 [1]) | Kd (Recombinant Human IL-17 [2]) | koff (Recombinant Human IL-17 [2]) | kon (Recombinant Human IL-17 [2]) | C-Terminal VD IL13 Neutralization Assay IC50 (Recombinant Human IL-13 [3]) | N-Terminal VD IL17 Neutralization Assay IC50 (Recombinant Human IL-17 [4]) | N-Terminal VD IL13 Neutralization Assay IC50 (Recombinant Human IL-13 [3]) | C-Terminal VD IL17 Neutralization Assay IC50 (Recombinant Human IL-17 [4]) |
| --- | --- | --- | --- | --- | --- | --- | --- | --- | --- | --- |
| B1 | < 0.048 nM | < 1e-06 s⁻¹ | 21000 M⁻¹ s⁻¹ | < 0.00037 nM | < 1e-06 s⁻¹ | 2.7e+06 M⁻¹ s⁻¹ | 1.7 nM | 0.0029 nM |  |  |
| B2 | 0.054 nM | 3.7e-05 s⁻¹ | 680000 M⁻¹ s⁻¹ | < 0.0025 nM | < 1e-06 s⁻¹ | 400000 M⁻¹ s⁻¹ |  |  | 0.119 nM | 0.0025 nM |
| B3 | < 0.005 nM | < 1e-06 s⁻¹ | 200000 M⁻¹ s⁻¹ | 0.011 nM | 2.1e-05 s⁻¹ | 1.9e+06 M⁻¹ s⁻¹ | 0.506 nM | 0.0011 nM |  |  |
| B4 | 0.033 nM | 2.9e-05 s⁻¹ | 890000 M⁻¹ s⁻¹ | 26 nM | 0.00017 s⁻¹ | 6800 M⁻¹ s⁻¹ |  |  | 0.111 nM | 0.678 nM |
| B5 | 0.12 nM | 3.7e-05 s⁻¹ | 310000 M⁻¹ s⁻¹ | 0.0036 nM | 9e-06 s⁻¹ | 2.5e+06 M⁻¹ s⁻¹ | 2.14 nM | 0.008 nM |  |  |
| B6 | 0.036 nM | 2.8e-05 s⁻¹ | 790000 M⁻¹ s⁻¹ | 0.098 nM | 1.8e-05 s⁻¹ | 180000 M⁻¹ s⁻¹ |  |  | 0.085 nM | 0.0126 nM |
| B7 | < 0.019 nM | < 1e-06 s⁻¹ | 52000 M⁻¹ s⁻¹ | 0.0021 nM | 5.4e-06 s⁻¹ | 2.7e+06 M⁻¹ s⁻¹ | 0.115 nM | 0.0089 nM |  |  |
